The values below come from patent US20260210971A1 (Pfizer, published 2026).

The target of experiment [1] is T1, recombinant soluble cynomolgus monkey TL1A (cynomolgus monkey, UniProt O95150 72-251 (human entry)).
T1 construct: also called cyno rsTL1A; cyno TL1A
T1 chain: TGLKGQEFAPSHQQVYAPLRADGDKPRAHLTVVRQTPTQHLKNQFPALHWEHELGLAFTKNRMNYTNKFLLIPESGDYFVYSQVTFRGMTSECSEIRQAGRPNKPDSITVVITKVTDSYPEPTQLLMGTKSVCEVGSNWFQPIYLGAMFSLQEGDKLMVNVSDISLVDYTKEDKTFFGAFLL
Nature of the experiment: SPR, IgG captured on anti-hIgG, TL1A injected. On the technique in general: SPR reads the build-up and loss of mass on a sensor chip optically.
Source text: The antibodies were captured via directly immobilized anti-human IgG (GE Healthcare) onto a carboxymethylated dextran sensor chip surface (CM5) using a Biacore T100 or T200 instrument. Anti-human IgG was immobilized through amine coupling to densities of approximately 4,000-13,000 response units (RU). […] At the end of each cycle, the entire anti-hIgG surface was regenerated by a 30-second pulse of 3M MgCl₂ followed by two consecutive 15-second pulses of PBS-NET. […] All injections were performed at 25° C. at a collection rate of 10 Hz. All sensorgrams were double referenced by using both a control surface and buffer injections. Rate constants were determined by fitting the data to a 1:1 model in Biacore T100, T200 evaluation software v1.0, or BIAevaluation software v4.1.1 and the equation KD=Kd/kₐ.
At the highest cytokine concentrations, the dissociation phase was sometimes extended to 60 minutes to achieve at least a 5% decrease in binding signal.

The target in experiment [2] is T2, recombinant soluble rat TL1A (rat, UniProt Q8K3Y7 76-252).
T2 construct: also called rat rsTL1A
T2 sequence: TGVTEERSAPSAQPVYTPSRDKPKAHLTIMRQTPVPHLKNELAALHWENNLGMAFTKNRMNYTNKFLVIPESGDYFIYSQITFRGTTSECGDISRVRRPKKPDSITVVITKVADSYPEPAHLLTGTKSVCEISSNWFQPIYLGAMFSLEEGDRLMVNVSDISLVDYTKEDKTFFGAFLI
Nature of the experiment: SPR, IgG captured on anti-hIgG, TL1A injected.

Experiment [3] addresses T3, recombinant soluble human TL1A (human, UniProt O95150 71-251).
T3 construct: Homotrimer, expressed in HEK293 and purified over HitrapNTA; no tag is described; Used biotinylated in the HTRF assay and in flow cytometry; also called rsTL1A; hTL1A
T3 sequence: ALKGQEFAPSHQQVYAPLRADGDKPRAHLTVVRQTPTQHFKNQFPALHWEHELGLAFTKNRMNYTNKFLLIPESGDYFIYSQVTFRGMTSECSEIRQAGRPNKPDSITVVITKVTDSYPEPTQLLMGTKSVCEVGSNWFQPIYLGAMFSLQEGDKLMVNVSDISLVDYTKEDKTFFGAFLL
Nature of the experiment: plate ELISA, TL1A coated, antibody titrated; plate of TNFSF14.
Procedure: (§1) The first 6 rows of each plate were coated with the test article cytokine, and the last two rows were coated with TL1A as a positive control. Rows 1 and 2 were duplicate rows where the test article cytokine was tested for binding to increasing concentrations of its corresponding anti-cytokine positive control antibody. […] The experiment for each cytokine was repeated three times.
(§2) Plates were incubated overnight at 4° C. After washing the plates three times (3×) with 300 μL PBST using a plate washer (model ELx405; BioTek), plates were blocked by incubating for 1 hour at room temperature with 300 μL of blocking buffer (PBST+0.5% BSA) in each well. […] Plates were then washed 5 times with PBST using the plate washer.

For experiment [4], the target named is T4, endogenous TL1A of stimulated human peripheral blood (human, UniProt O95150 72-251, limits assumed).
T4 construct: also called endogenous soluble TL1A
T4 sequence (looked up): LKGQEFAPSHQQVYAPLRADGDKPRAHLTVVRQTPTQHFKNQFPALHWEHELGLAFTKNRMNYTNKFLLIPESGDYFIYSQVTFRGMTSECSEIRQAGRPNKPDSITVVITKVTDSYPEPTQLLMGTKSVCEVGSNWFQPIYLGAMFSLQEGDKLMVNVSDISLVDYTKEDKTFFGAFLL
Nature of the experiment: MSD ligand-binding assay of 1D1 1.31-free soluble TL1A in plasma of human whole blood stimulated 24 h with immune complex + IL-12/IL-18.
Procedure: After 24 hours of culture at 37° C., 100 μL of 5% bovine serum albumin in PBS were added and mixed well with the 200 μL of blood cultures to dilute plasma (dilution factor: 1.5). […] IFNγ was measured using the MSD human IFNγ kit (Catalog No. K151AEB-1) following the manufacturer's instructions. […] The following day, plates were washed three times with 150 μL per well of 0.1% Tween 20 in PBS, followed with 150 μL per well of blocking solution (5% bovine serum albumin in PBS), then the plates were incubated at room temperature for 1 hour with orbital shaking (1500 rpm). After the plates were washed as mentioned above, diluted plasma samples were added and incubated at 4° C. overnight. […] TL1A standard curves were generated using recombinant human soluble TL1A. Plates were read following the manufacturer's procedure, standard curve and plasma concentration of the cytokine were calculated with the MSD software.

For experiment [5], the target named is T5, endogenous TL1A of stimulated cynomolgus monkey peripheral blood (cynomolgus monkey, UniProt G7PRK8 72-251).
T5 construct: also called sTL1A (cynomolgus)
T5 sequence: T4 sequence (looked up) with F39L, I78V
In words: MSD ligand-binding assay of 1D1 1.31-free sTL1A in plasma of stimulated cynomolgus blood; mean of n=6 monkeys.
Procedure: (§3) Cynomolgus monkey peripheral blood treated with 1 ng/ml recombinant human IL-12 and 10 ng/ml recombinant human IL-18 was stimulated by immune complex coated plates for 24 hours at 37° C. […] Plasma was prepared from these samples and IFNγ was measured in the plasma samples by a quantitative immune-ligand binding assay using a Mesoscale (MSD) kit. […] Cynomolgus monkey peripheral blood treated with 1 ng/ml recombinant human IL-12 and 10 ng/ml recombinant human IL-18 was stimulated by immune complex coated plates for 24 hours at 37° C.
(§4) For IC and IL-12 and IL-18 stimulation, cynomolgus monkey blood was collected in sodium heparin coated tubes and used within one hour after the blood draw. Human IL-12 (1 ng/mL final concentration) and human IL-18 (10 ng/ml final concentration) were mixed in with blood prior to addition of 95 μL of the blood/IL-12/IL-18 mixture to each well of the IC coated plates.

Experiment [6] addresses T3, recombinant soluble human TL1A. In words: flow cytometry, inhibition of the binding of 10 µg/mL biotinylated TL1A to DR3-transfected HEK293 cells.
The target is the same in experiment [7]. In words: plate ELISA, TL1A coated at 1 µg/mL, detection with anti-human IgG HRP. For orientation: In an ELISA, binding on a coated surface is turned into a signal by an enzyme label.
Procedure: as §1, §2
Experiment [8] deals with T6, human TNFSF6 (FAS Ligand) (human, UniProt P48023 134-281, limits assumed).
T6 sequence (looked up): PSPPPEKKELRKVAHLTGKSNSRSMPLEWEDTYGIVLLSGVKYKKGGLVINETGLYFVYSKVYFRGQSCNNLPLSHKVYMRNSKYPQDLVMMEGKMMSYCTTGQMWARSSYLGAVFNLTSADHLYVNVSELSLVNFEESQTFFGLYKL
In words: plate ELISA, TNFSF6 coated at 1 µg/mL, detection with anti-human IgG HRP.
Procedure: as §1, §2

Experiment [9] deals with T3, recombinant soluble human TL1A. Nature of the experiment: plate ELISA, TL1A coated, antibody titrated; plate of Lymβ 2.
Procedure: as §1, §2
For experiment [10], the target named is T7, recombinant soluble murine TL1A (mouse, UniProt Q5UBV8 75-252).
T7 construct: also called murine rsTL1A; mouse TL1A
T7 chain: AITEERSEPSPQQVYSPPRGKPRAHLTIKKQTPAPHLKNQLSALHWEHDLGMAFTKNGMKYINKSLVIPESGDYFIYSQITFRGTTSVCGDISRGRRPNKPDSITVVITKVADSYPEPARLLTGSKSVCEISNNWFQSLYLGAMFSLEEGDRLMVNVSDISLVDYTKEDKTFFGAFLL
In words: SPR, IgG captured on anti-hIgG, TL1A injected.

Experiment [11] concerns the target T5, endogenous TL1A of stimulated …. Nature of the experiment: MSD ligand-binding assay of 1D1 1.31-free sTL1A in plasma of stimulated cynomolgus blood; upper end over the monkeys; upper end of range over 6 monkeys.
Procedure: as §3, §4
For experiment [12], the target named is T3, recombinant soluble human TL1A. Nature of the experiment: plate ELISA, TL1A coated, antibody titrated.
For experiment [13], the target named is T7, recombinant soluble murine TL1A. In words: KinExA, equilibrium in solution. A general note: Kinetic exclusion samples the free partner from a solution-phase mixture.
Procedure: (§5) This assay involves pre-incubating antibody: antigen mixtures in solution long enough to reach equilibrium before measuring the level of unbound antibody using a solid phase component. […] Beads were blocked for 1 hour with PBS plus 10 mg/ml bovine serum albumin (bovine serum albumin, Sigma) at room temperature before being diluted up to a total of 27 ml in PBS. […] For each titration series, a buffer sample and a sample of antibody alone were included. Each antibody: TL1A mixture was tumbled at room temperature for at least six hours to reach equilibrium and then each mixture was injected over the solid phase of TL1A-coated beads in the instrument flow cell. […] Beads were replenished between each sample. Binding signals of detected free antibody were converted to percentage of free, unbound antibody as measured by the antibody only sample and plotted versus each concentration of TL1A. For each antibody, the KD and ABC controlled curves were fit simultaneously using n-Curve Analysis software v3.1.4 to fit the curves to the ‘affinity, unknown ligand’ model and measure an equilibrium KD.
(§6) Solution-based kinetic exclusion assays (KinExA) were carried out as an orthogonal technique to measure equilibrium KD values.
Experiment [14] addresses T3, recombinant soluble human TL1A. Nature of the experiment: KinExA, equilibrium in solution.
Procedure: as §5, §6
The target in experiment [15] is T1, recombinant soluble cynomolgus monkey …. In words: KinExA, equilibrium in solution.
Procedure: as §5, §6

Substitutions are numbered along the chain they refer to. “And” between values parts separate entries of the source, which are not always exact repeats. Equal entries are not always repeated.

In general, Kd refers to the concentration at which binding is half-saturated. A word on the koff: it is a measure of how fast the partners let go of each other. What is called kon is a measure of how fast the partners come together. By EC50 is commonly meant the concentration at which the effect is half-maximal. By IC50 is commonly meant the concentration that gives 50% inhibition. One may read the EC50 (read off the curve) as the concentration giving half of the maximal effect.

B1: 1D1 1.31 (antibody, human IgG1, kappa, V domains shown)
VH: QVQLVQSGAEVKKPGASVKVSCKASGYDFTYYGISWVRQAPGQGLEWMGWISTYNGNTHYARMLQGRVTMTTDTSTRTAYMELRSLRSDDTAVYYCARENYYGSGAYRGGMDVWGQGTTVTVSS
VL: EIVLTQSPATLSLSPGERATLSCRASQSVSSYLAWYQQKPGQAPRLLIYDASNRATGIPARFSGSGSGTDFTLTISSLEPEDFAVYYCQQRSNWPWTFGQGTKVEIKR
notes: Full length human IgG1 with effector function-null mutations in the Fc, produced in CHO cells; Used biotinylated for staining of monocytes
Take B1: the Kd in experiment [1] was 0.081 nM; in experiment [2], 4.86 nM; in [10], 1.06 nM; in [13] it was 0.0953 nM; in [14], 0.00138 nM and 0.0036 nM; in [15] it was 0.0035 nM. The dissociation rate constant (koff) stood at 3.6e-05 s⁻¹ in experiment [1], 0.0026 s⁻¹ in [2] and 0.00027 s⁻¹ in experiment [10]. The kon in experiment [1] is 450000 M⁻¹ s⁻¹; in experiment [2] it was 540000 M⁻¹ s⁻¹; in [10] it was 270000 M⁻¹ s⁻¹. In addition, the figures for the t1/2 in [1], in experiment [2] and in experiment [10] were 321 min, 4.38 min and 42.1 min, respectively. Besides, the EC50 in experiment [3] came out at 0.0084 ng/mL; in [9], 0.0058 ng/mL; in [12], 8400 ng/mL. Further, in experiment [4], the “IC50 (read off the curve)” value was ~0.005 nM. Also, the concentration for half-maximal inhibition (IC50) was 0.022 nM in [5], 18700 ng/mL in experiment [6] and 0.09 nM in [11]. For the same molecule, in experiment [7], the “EC50 (read off the curve)” value was ~8 ng/mL. The binding result in experiment [8] is given as “no binding (tested: 25 µg/ml)”.
